According to article PMC9737104, “Effects of Molecular Crowding and Betaine on HSPB5 Interactions, with Target Proteins Differing in the Quaternary Structure and Aggregation Mechanism” (International Journal of Molecular Sciences, 2022):

Target: the molecule itself
Assay: AUC; sedimentation velocity at 25 °C, 48,000 rpm; GDH 0.2 mg/mL with HSPB5 0.05 mg/mL, 25 mg/mL PEG and 1 M betaine, heated 10 min at 50 °C before the run; 0.1 M Na-phosphate pH 7.6, 0.01 M NaCl

B1: bovine liver glutamate dehydrogenase, heated 10 min at 50 °C (enzyme)
chain: not shown
notes: bovine liver glutamate dehydrogenase [EC 1.4.1.2-4], homohexamer of about 360 kDa; also called GDH; source: bought: Sigma-Aldrich (suspension in ammonium sulfate), desalted on a PD-10 column
With B1 the “stoichiometry N” value was 6.
